Experimental data: patent US12552834 (MIT, dated 2026)
Read-outs that look alike come from different tables or passages of the source.

B1: TENM1 36-mer peptide (peptide)
peptide: MAGGLNDIFEAQKIEWHEDTGGSSHHHHHHGSGSGSDSEVNQEAKPEVKPEVKPETHINLKVSDGSSEIFFKIKKTTPLRRLMEAFAKRQGKEMDSLTFLYDGIEIQADQTPEDLDMEDNDIIEAHREQIGGSGSGGSTQDVQSSPHNQFTFRPLPPPPPPPHACTCARKPP
modifications: biotinylated (BAP tag)
notes: Tested as a biotinylated BAP-6xHis-SUMO-peptide fusion; The text calls it TEN1; it contains both an FP4 and a CXC motif; also called TEN1
B2: SUMO-ActA (ActA 36-mer peptide fused to SUMO) (peptide)
peptide: MAGGLNDIFEAQKIEWHEDTGGSSHHHHHHGSGSGSDSEVNQEAKPEVKPEVKPETHINLKVSDGSSEIFFKIKKTTPLRRLMEAFAKRQGKEMDSLTFLYDGIEIQADQTPEDLDMEDNDIIEAHREQIGGGFNAPATSEPSSFEFPPPPTEDELEIIRETASSLDS
modifications: biotinylated (BAP tag)
notes: Control peptide used in BLI and ITC; also called ActA peptide
B3: ABI1-LPP fusion peptide (designed binder)
peptide: MAGGLNDIFEAQKIEWHEDTGGSSHHHHHHGSGSGSDSEVNQEAKPEVKPEVKPETHINLKVSDGSSEIFFKIKKTTPLRRLMEAFAKRQGKEMDSLTFLYDGIEIQADQTPEDLDMEDNDIIEAHREQIGGSGSGFDDFPPPPPPPPVDYEDLPSISGNFPPPPPL
modifications: biotinylated (BAP tag)
notes: Engineered peptide, tested as a SUMO fusion in BLI
B4: LPP 36mer peptide (peptide)
peptide: MAGGLNDIFEAQKIEWHEDTGGSSHHHHHHGSGSGSDSEVNQEAKPEVKPEVKPETHINLKVSDGSSEIFFKIKKTTPLRRLMEAFAKRQGKEMDSLTFLYDGIEIQADQTPEDLDMEDNDIIEAHREQIGGSGSGKQPGGEGDFLPPPPPPLDDSSALPSISGNFPPPPPL
modifications: biotinylated (BAP tag)
notes: Tested as a BAP-6xHis-SUMO-peptide fusion in BLI and ITC
B5: PCARE-Dual peptide (designed binder)
peptide: MAGGLNDIFEAQKIEWHEDTGGSSHHHHHHGSGSGSDSEVNQEAKPEVKPEVKPETHINLKVSDGSSEIFFKIKKTTPLRRLMEAFAKRQGKEMDSLTFLYDGIEIQADQTPEDLDMEDNDIIEAHREQIGGSGSGNLEHLPPPPMEVLMDKSFASLESGSGSPPPPPF
modifications: biotinylated (BAP tag)
notes: as for B3
B6: PCARE B (PCARE826-848) (peptide)
peptide: MAGGLNDIFEAQKIEWHEDTGGSSHHHHHHGSGSGSDSEVNQEAKPEVKPEVKPETHINLKVSDGSSEIFFKIKKTTPLRRLMEAFAKRQGKEMDSLTFLYDGIEIQADQTPEDLDMEDNDIIEAHREQIGGSGSGNLEHLPPPPMEVLMDKSFASLES
modifications: biotinylated (BAP tag)
B7: ABI1 36mer peptide (peptide)
peptide: MAGGLNDIFEAQKIEWHEDTGGSSHHHHHHGSGSGSDSEVNQEAKPEVKPEVKPETHINLKVSDGSSEIFFKIKKTTPLRRLMEAFAKRQGKEMDSLTFLYDGIEIQADQTPEDLDMEDNDIIEAHREQIGGSGSGFDDFPPPPPPPPVDYEDEEAAVVQYNDPYADGDPAW
modifications: biotinylated (BAP tag)
B8: NHSL1 36mer peptide (peptide)
peptide: MAGGLNDIFEAQKIEWHEDTGGSSHHHHHHGSGSGSDSEVNQEAKPEVKPEVKPETHINLKVSDGSSEIFFKIKKTTPLRRLMEAFAKRQGKEMDSLTFLYDGIEIQADQTPEDLDMEDNDIIEAHREQIGGSGSGADRSPFLPPPPPVTDCSQGSPLPHSPVFPPPPPEAL
modifications: biotinylated (BAP tag)
notes: as for B4

Key:
[1] = molecular target: T1, ENAH EVH1 domain (monomeric, wild type) (human, UniProt Q03173 1-111 (mouse entry)); test: BLI, monomeric EVH1
T1 construct: ENAH residue numbers in the text count from the Met at position 25 of this entry; also called ENAH EVH1 WT; Mena EVH1 WT

[2] = molecular target: T1, ENAH EVH1 domain (monomeric, wild type); test: BLI, steady state; SUMO-peptide immobilised, EVH1 monomer in solution
Description: (§1) All BLI experiments were performed with 2 replicates on an Octet Red96 instrument (ForteBio). […] The loaded tips were immersed in a solution of ENAH EVH1 domain at a relevant dilution series in BLI buffer at an orbital shake speed of 1000 rpm and run until the binding signal plateaued. ENAH-bound tips were subsequently placed into BLI buffer only for dissociation and run until the binding signal plateaued. K_D values were obtained through steady state analysis. […] The association phases were then fit to a one-phase binding model in Prism and the equilibrium steady-state binding signal values from that fit were plotted against ENAH concentration and fit to a single-site specific binding model in Prism to obtain dissociation constants. Errors reported are the standard deviation of two replicates.

[3] = molecular target: T1, ENAH EVH1 domain (monomeric, wild type); test: ITC
Description: (§2) ITC experiments were performed with two replicates using a VP-ITC microcalorimeter (MicroCal LLC). To prepare samples for ITC, 2.5 mL of 100 µM ENAH EVH1 domain and 1 mL of 800 µM-1.2 mM of SUMO-peptide fusions were dialyzed against 2 µL of ITC Buffer (20 mM Hepes pH 7.6, 150 mM NaCl, 1 mM TCEP) at 4° C. overnight. The concentrations of proteins were remeasured after dialysis on the day of experiment. SUMO-peptide was titrated into ENAH EVH1 domain at 25° C. Data analysis and curve fitting were performed with the Origin 7.0 software (OriginLab).

[4] = molecular target: T1, ENAH EVH1 domain (monomeric, wild type); test: ITC, SUMO-peptide titrated into ENAH EVH1 domain at 25 °C
Description: as §2

[5] = molecular target: T1, ENAH EVH1 domain (monomeric, wild type); test: BLI, steady state; SUMO-peptide immobilised, EVH1 monomer in solution; remark: listed apart in the source
Description: as §1

[6] = molecular target: T2, ENAH EVH1 domain with Arg47 mutated to Ala (human, UniProt Q03173 1-111 (mouse entry)); test: as above
T2 construct: also called ENAH R47A; ENAH EVH1 R47A
Description: as §1

[7] = molecular target: T1, ENAH EVH1 domain (monomeric, wild type); test: BLI
Description: as §1

[8] = molecular target: T1, ENAH EVH1 domain (monomeric, wild type); test: BLI dissociation phase, immobilised SUMO-peptide, ENAH EVH1 domain in solution
[9] = molecular target: T1, ENAH EVH1 domain (monomeric, wild type); test: BLI, steady state; SUMO-peptide immobilised, EVH1 monomer in solution; remark: listed apart in the source
Description: as §1

[10] = molecular target: T2, ENAH EVH1 domain with Arg47 mutated to …; test: as above; remark: listed apart in the source
Description: as §1

[11] = molecular target: T1, ENAH EVH1 domain (monomeric, wild type); test: BLI dissociation curves
Description: (§3) (C) Peptide binding and dissociation curves measured by BLI. Blue, orange, green, red, purple, and brown curves denote EVH1 concentrations in descending order.
as §1

[12] = molecular target: T1, ENAH EVH1 domain (monomeric, wild type); test: BLI steady state, immobilised SUMO-PCARE-Dual, EVH1 domain in solution
Description: as §3, §1

VASP EVH1 domain [13] = molecular target: T3, VASP EVH1 domain (Homo sapiens (Human), UniProt P50552 1-114); test: as above
T3 construct: VASP numbering in the text counts from the Met at position 25 of the entry
Description: as §3, §1

[14] = molecular target: T4, EVL EVH1 domain (wild type) (Mus musculus (Mouse), UniProt P70429 1-116); test: as above
T4 construct: EVL numbering counts from the Met at position 25 of the entry; also called WT EVL EVH1 domain
Description: as §3, §1

[15] = molecular target: T1, ENAH EVH1 domain (monomeric, wild type); test: BLI steady state, immobilised SUMO-peptide, ENAH EVH1 domain in solution
Description: as §3, §1

[16] = molecular target: T5, EVL EVH1 swapped (residue swapped) (Homo sapiens (Human), UniProt Q9UI08 1-109); test: BLI, EVL swapped EVH1 domain in solution
T5 construct: also called EVL swapped; residue-swapped EVL EVH1 domain

VASP EVH1 domain [17] = molecular target: T3, VASP EVH1 domain; test: BLI steady state, immobilised SUMO-PCARE B, EVH1 domain in solution
[18] = molecular target: T4, EVL EVH1 domain (wild type); test: as above
[19] = molecular target: T4, EVL EVH1 domain (wild type); test: as above; remark: listed apart in the source
[20] = molecular target: T1, ENAH EVH1 domain (monomeric, wild type); test: BLI, steady state; SUMO-peptide immobilised, EVH1 monomer in solution; remark: listed apart in the source
Description: as §1

[21] = molecular target: T1, ENAH EVH1 domain (monomeric, wild type); test: BLI, steady state; SUMO-peptide immobilised, EVH1 monomer in solution; Table 2 (MassTitr hit validation), not the Table 3 truncation series
Description: as §1

T2 sequence (Q03173 other isoform, or with tags, fused parts or gaps limits assumed, stated change not applied): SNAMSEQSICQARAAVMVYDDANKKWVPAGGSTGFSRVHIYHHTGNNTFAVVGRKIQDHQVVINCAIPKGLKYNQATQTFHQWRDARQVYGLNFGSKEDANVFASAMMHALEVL
T4 sequence (P70429 other isoform, or with tags, fused parts or gaps limits assumed): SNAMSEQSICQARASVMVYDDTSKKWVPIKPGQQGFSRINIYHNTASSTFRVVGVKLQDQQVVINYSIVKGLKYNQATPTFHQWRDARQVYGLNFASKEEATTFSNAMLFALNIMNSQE
T1 sequence (Q03173 other isoform, or with tags, fused parts or gaps limits assumed): as the sequence (Q03173 other isoform, or with tags, fused parts or gaps limits assumed, stated change not applied) above, with A50R counted along it
T3 sequence (P50552 other isoform, or with tags, fused parts or gaps limits assumed): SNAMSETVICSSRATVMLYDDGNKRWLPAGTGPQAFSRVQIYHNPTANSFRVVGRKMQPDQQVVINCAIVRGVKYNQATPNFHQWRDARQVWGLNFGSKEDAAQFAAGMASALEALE
T5 sequence (Q9UI08 other isoform, or with tags, fused parts or gaps limits assumed): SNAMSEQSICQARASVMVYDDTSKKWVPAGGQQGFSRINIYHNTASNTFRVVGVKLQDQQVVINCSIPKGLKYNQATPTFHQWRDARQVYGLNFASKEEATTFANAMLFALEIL

Row | Binder | Kd [2] [µM] | -TΔS [3] [kcal/mol] | ΔG [3] [kcal/mol] | ΔH [3] [kcal/mol] | Kd [4] [µM] | Kd [5] [µM] | Kd [6] [µM] | koff [8] [s⁻¹] | other results
1 | B1 | 62.9 |  |  |  |  |  |  |  | Kd [1]: > 60 µM
2 | B2 | 5.21 | -5.21 | -6.99 | -1.78 | 7.41 | 5.21 | 8.02 |  | 
3 | B3 |  |  |  |  |  |  |  | 0.33 | Kd [7]: 0.76 µM
4 | B4 | 4.03 | -0.504 | -6.94 | -6.44 | 8.13 | 4.03 | 61.9 | 1.8 | Kd [9]: 4.03 µM; Kd [10]: 61.9 µM
5 | B5 |  |  |  |  |  |  |  | 0.045 | Kd [7]: 0.05 µM; fold tighter binding than PCARE B [7]: ~7 fold; fold slower dissociation than dual-motif peptide LPP [11]: ~100 fold; Kd [12]: 0.048 µM; Kd (VASP EVH1 domain [13]): 28 µM; Kd [14]: 21 µM; Kd [15]: 0.048 µM
6 | B6 |  |  |  |  |  |  |  |  | Kd [16]: 0.35 µM; Kd (VASP EVH1 domain [17]): 42 µM; Kd [18]: 22 µM; Kd [19]: 22 µM
7 | B7 |  |  |  |  |  |  |  |  | Kd [20]: 4.01 µM; Kd [21]: 2.44 µM
8 | B8 | 8.56 | -0.28 | -6.83 | -6.55 | 9.8 | 8.56 | 55.4 |  | Kd [9]: 8.56 µM; Kd [10]: 55.4 µM
